Laboratory results taken from the NTF2 design screens of Basanta et al. (2020).

test: protease stability score; higher = more stable; yeast display proteolysis, trypsin and chymotrypsin;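 further: log10 excess protease needed over predicted unfolded state with 0 meaning unfolded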

| Sequence | protease stability score |
| --- | --- |
| DEEAFKVMEKLEEDIHTGSEENIEKLFDPNARLRVGDHVVDGRHNIAKHVRDVRESARLEFSVRTYDMQGEKVRLDVTWRREHNGQPESATATVVAEIHNGRIVSVTVDERK | 0.801 |
| DEEAHELWKKWQEAFKTGDPEQLHEMADKDARLRIGNKEIHGREKAVKQLVDERKEMHIDYRIRSYKFEGNRLTFTAHANARVNGQPYRYTVKMQFSFSNGRLKELQIRIPEEVMQELRN | 0.791 |
| DEEAHEVIDTLRKAQETGDRNTARSLIDPNATFQVGDNVIRGREEYVRDLVRHRDQIRVELKHLSQTFSNGKMRMTQEAVYDINGRPDRVEFTASATIHNGRVKHMTVQVPPEQVKRLER | -0.181 |
| DEEAHKLATKWLRAVQTGDPDTVKELVDPNVRAVYGDQEITGRERLADEIKKTRDHSRVELESVRVTVHGDKVRAQADVRVNTNGKPERNTVDVTIVIHNGRIKRMHMQKSQ | 0.7 |
| DEEAHKLMEEMMRAWKHGDSQRVADLVDPNARVKIGDKEVRGHEQIKELVHTLKTEMRIEYQSISAENHGNHVEVDARLSVESNGKPEQVDFKLRLVVQNGRIREISADYKP | -0.035 |
| DEEAHKVAESFIKAYSNGDEDKLKKNVDPNARIQIGDKYIHGMDTFVKEQRKRREQSRYHMSITHVDVQGNEVDVRFKAESEHDGQPHTNRMSVNFTFHNGNIKNVDIQYEP | -0.307 |
| DEEAIDLANRFLEARKTGDPDKAREQADPNATFKYGDREVHGMDEMARQIEHEHKESRVNIDVDRVTDTGDTAKFDMSVRENHNGQPHTVKMDMVVKAHNGHIKHLSYTLNG | -0.514 |
| DEEAIHRMEEFIKNVNNNNEEKLKELADPNVDAHIGDKVIHGMERIVTELVKELENIDIEYKDMRVEDRGDNIHIQIRAIFHHNGKPQEHTQIIDVQVENGKVKKMRRSSDS | 0.185 |
| DEEAIKQAKKLLDALRTGDEETLKEMIDPNARIHVGDKEVHGREEAAEQWQRRQEEQSMDWKVKSVENTNGRAEFRATATRRHNGQPDHFDFTWRVQAHNGRVKHMQVETRG | -0.262 |
| DEEAIKVQEEIQKQEEKGNEENVEKNMDENVKLRVGDKDLEGRSEVSKDVRRRKDEMRFQYLHMSYHSNGETIRVNIEMSSNHNGRPDTRRFDATFHIHNGKLTEYSKESSQ | 0.161 |
| DEEAKDNFETAFKAEMTGDPQKYKKNVDPNAKVTIGDKTVRGREEVAKQLQHRRKESHVEFTDMKVKVQGDKVVVKLKAVDNENGRPDTAHYDIQFHASDGRITDLKVNKTK | -0.049 |
| DEEAKEVLERWHTAIKHGDPNLAKEMADKDVRINVGDKSFSGMEQNAKDMHRERNELEYEILSVRFEVHGDKVKVEFHATRNNNGNPDTKKFDLTATASNGKATRVTLQSSG | -0.538 |
| DEEAKKLADEWADAVNKNDEKSLKDLVDPNAKFRVGNQEYHGREQLEEFLSKWMSEWRHSLEDWRVNVQGDTVVLTAKLNVDVNGKPARVDAHVEFVVHNGRIKSQSEQFDEQRLRDNKS | 0.521 |
| DEEALEILRDAWEALRTGDHEKLRELFDKNANVRIGEKRFEGSDEIMRDWLTTIRNIRFHIHDIKFTVNGDKAVVRVNVNFEHNGKPQSDVYRMSAEADNGRIKSADADRDK | 0.391 |
| DEEALHILERFLKLMETNDEETLRDLVDPNAENRVGDKTVHGREDFQREVHTMKKQWRVRFRHIDNQSRPNEAVVRANVNNDINGRPITEDVVFRADFKNGKLKSLHIQMPEEYKKELDK | 0.455 |
| DEEALHLATQLYTNWRNNNPEEVVKLLDENARINVGDFNVTGRNNVRSTLEHLNREMHFEMRISSVDDHNGRAHLTVEARKNINGQPRNVSMKMEVQFHNGKIQQIVAHMPEEDIRTLQS | 0.811 |
| DEEALKFAETFLEVLHKGNPDDLRRLIDENVEIKIGDHEIDGMDNAVKQLHTRIKEINMHIKVDSMKAQGDSIKIHFTREVHRDGRPDTRHATLIMRFNNGELQRFQVDDRQ | 0.335 |
| DEEALKHAKKLLNIITNGNPSEAQKLFDPNAKAHIGDQTLTGREDYVRDLQEKKDRMRYKIKSMDAQTDGEKVRFDIKYDFNINGQPRHASVVIRLKLHNGKIVEIRVQIDPEQLKQHRQ | 1.09 |
| DEEALKKLQDILRRNDQDKMNKMIDKDVRVVIGEHEYRGKRNVQEALKREYEHADRFEVKHIEDHGDKLHVDVVLRVDGRDIRFVVVIDVHNGNIRNVKVDFTDEDTQRDFQRQLD | 1.01 |
| DEEALKKMVDTLLKYVEQGNIKDIQQILKENVEFKLGDTEYKGVEHAKRDVKKLKDAGVEVHVKKTEVEGDTAHVETVWHAGDYEMHVTVQYVVRGDKVEKVEVRWSEEAKKALKVG | 0.24 |
| DEEALKLLESLMEAVKTNNEERLKSLVDPNAHFQYGDKTLHGMEDWAKEVVRRMREIHVEWEWHTWSVHNGQIVVDVHARLEINGRPVHWKERIIVELENGKVKSMVFQISEEEKKHIDG | 1.6 |
| DEEALKNVKENLEDGDWDNLAKQADENATWVYGEKRVHGRRDLKKYAEAMKRQIDHWSIRSITTRGNKASVNAEVQVNGHRRSFHIEVEVENGHIKHWNMNFTDPTDERKVLKILE | -0.017 |
| DEEALKNWEHQLRAHEQGDENRLKELADPNVRYRVGNHEIRGMQQRVEDASRVKEHMRVQMSIQEVEVRGDKFDATATAEYVVNGRPQQITYKFSFHAHNGKIKNLDVRLDEDQQRKLEK | 0.184 |
| DEEALKQAEEILTQRQTGNPQEVMKNMDKNVKFDYGDKTIHGKENLEKDVEKERTEMRYEIKSVEFRARGNKVVADFRATFNVNGHPFSVRVVFIAHFEDGKIKKATENVSEEQRKKMKS | 0.084 |
| DEEALKRVEKFWEALNTGNEDELRKQLDPNARIRIGDKDIQGREDMAKWVRRVNRQMKMTVTIEDMQTRPGRAEIDAKASVNHNGRPNQHDVKLSAEFHNGQITSLTVQLKG | 0.592 |

| Sequence | protease stability score |
| --- | --- |
| DEEALKVLKEWIKAVETGDEERIKELVDKDVTVQVGDKVIRGREQVAKTVRKEREEMRVEINFDRLHADGDRVSAEFKVVEETNGRPNTKKQRMSARVHNGKFKSMEIQDDG | 0.205 |
| DEEALNLFHRMINAIQENDPDTLHRLVDPNARIQIGDHDIHGMKTYVREVEKTLRSMRIKFDIKSVDVTGDKVVIDEKVDFDINGKPVHNKVEMRIKAHNGTVKHLDWKVPEDELKKIEE | -0.232 |
| DEEALNNLHEFFKHWNTGNPHELMKLADPNVRFQVGEKVIHGREEFMKDIKRIREELRQEIDVRDVKVQGEKLIVKATRSEERNGKPSSDTIHMTARVHNGRIKSVDIKSTS | 0.435 |
| DEEAMKRFQELLDVLRTGDENRAKKLMDENVHLLVGDKEINGRDHAAKTMAQTYREMRIEYKTVKRDVTNGVVHVRMRYVKEHNGTPNDRVVLVEVRFHNGRLKVLNRNEKD | 0.352 |
| DEEAMKVFEEIMRAIEQGDPDRIIENADEDVRFDVGDKRLHGREKAAKDLVDFLHHQRTHIRSYDTSVSGEKLTLDVDMVNQNNGNPNSKRYTVDAHVHNGKLKSVKETDDQ | -0.27 |
| DEEANDLFRQIQTAENDNNPDEITELFDENATFRVGDRVIKGREKYAHKVVENLQKWRFTWDRIDVKARNGHARVTIRMTFNVNGKPDSYQAVMHLQFSNGRVQEIHMDIDPRKAKELLK | 0.124 |
| DEEANEMAKSYLEAKTRGDPRSAKELADKDAEFVVGDKTYQGMDENSDNMRRERDEQRTKVKILHLDDRPNHAVIKYRVEVQTNGQPRTKNYELNLQYSNGKIKYVRVEDRK | -0.027 |
| DEEANKIAKKFQEALRKGDENRLKELVDPNVRMEYGDHSIHGREELEKDVRKKKRDMRVKITLDHMEDNGSEVTAKVRWTQEHNGTPDSTHFSARFDFTDGRLKHYDQNDSG | -0.009 |
| DEEANKNMKDMWRTGDWKQIAENADEDAHYQVGDKKFSGREQVQTFIELLQNRVDDQNIRDMEDKGNEIDIEFTVVINGRKLVLHATVQAHNGRVKSWTVKVTDRDDKRKLDEALR | 0.307 |
| DEEANKVAKKLWEAIDHGNKEQAKELADPNAKAHVGDKSIHGMDTFVTWIKEIFDTMSFEVRIEDMKVHNGRLSANVRATFDINGQPRHQQARFKMDIHNGKISKVVIEMPKEKWKTILR | 0.97 |
| DEEANKVIDRLLKAIKHNNPDQAQHNMDEDVRIRIGDQEINGREQAKKEIRKRNEKMRINIDEVTLNEHPNKVRIQYRYKVDVNGRPVRNSAHMEARVSNGKVKEIDVRVSEDQKRHEER | 0.018 |
| DEEAQELAERVFKALQTGDPDTLVKNMDPNVRLDVGDKKIQGREEAKKHADRLRHEQKVEYDSYEVRVHDGRVVVRLHWKFTVNGHPRTLTLTVEMKAHNGKVKHFSQRVPEDVLRKMKS | -0.049 |
| DEEAQEVVEDMLRAIDKGDEDQIRRNVDKDAKVKVGNHELHGREQIAKFLSKERNEIEQSFQYESVTVDGDKIKFQFEMSRNVNGKPMRVSAQAEADAHNGKIRHFKVNVDTDVERRIDS | -0.165 |
| DEEAQEVYHRLRKVLENNNPKEFEENVDKDVRFNIGDKRIHGREQASKDWKSRMEEQHRKITRVENQSHGNEFEVRAKVNYDHNGQPRQQDLSAHVVAENGKLKMATYEVRK | 0.018 |
| DEEAQKAAERVWKAIERGNEEELHRLIDPDVRIKVGDKDYHGREHYVESVVEIMTTIRFTIHRMEIKVSGERVIIEYHYEFSVNGQPDTMRVIVYMVAHNGKVKNIHVKMSPEKRDRFRE | 1.05 |
| DEEAQKHIQQMFHAIDHGNPEKVKELADPNVNIEVGDKRYHGMDTWVREIEKTKKEMRVSVEHVKVDDRNGRAKIDVIMNNEVNGKPVRDRKTATADVHNGKIKSLQYQFSEDQKKKDEG | -0.472 |
| DEEAQKHLREFFKNQETGDPDKLMEMVDENVHWQVGDKTIEGRDTMKQDFDRRRKELRYHVDIKKVNAHNGRIRARATFHNEHNGKPKSFQAIVVAVITNGRIKSIHVQKRQ | -0.037 |
| DEEAQKKVEEWERAIEHGNEQQARELADKDVRIEVGDQRVRGMEDIARTQVRKQREITRHVRRFDAHATGDKIRVELVFEVHHDGQPRHQKYELRMVMHNGRVHSVRVETRR | 0.412 |
| DEEAQKLLDMLRKAEQTGDEDRVRQLADEDVKVRIGDKVIHGREEWARHVRRERNEMRFKIQDLKVDVQGDHLSVKYTAHRDHNGQPQSDTYHYTLQMHNGRIKHLNVTEEK | -0.004 |
| DEEAQKQAEHLIRNLEQGNEDQIERLADPNARFQYGNKEINGREEMSTWVRRYKKQARLEIKSVSADAQGDKITVDVHFVIDINGRPSTMRVNVVMSIDNGSINHMVFEIDEEQEKELNK | 0.202 |
| DEEAQKQFEEFLDVLETGDPKRLQDNMDEDARVVIGDKTITGREEAAKEWHKIRQEISVEIKHVHMEAQGDKLNATLDVVWNVNGRPHRFKFVIIMDFHNGRIKQIEIRMDERHLKKLRT | 0.499 |
| DEEAQKRAEELIRILQTGDPDKLMEMFDKDAHATIGDQTVRGREDMRRRQKELKETMDVKLDITDVKVTGEKIDIRIKATFNYNGQPAEDTIVFIIQQHNGRVQRFEVRIDEDVLRQLKK | 0.184 |
| DEEAQKRAQTFFHILEHGDPKKLSKLFDKDAKFVVGEQRINGMQQYEQWFRDVYKKIRVTMKLVSVHVTGNKIDIKAKVEWHVNGRPLTFDLDIKINFHNGKMKEAVFHVDSDFLRKLKR | 0.63 |
| DEEAQKTAEDFLRAFQDGNHEQLLKLMDKDAQAQYGDQRLHGREKLRQHIYELLKNIRLEYSIDDVKVDGNNVRIHMQYEAEVNGQPVKDKAKVDIVFHNGKIKTFMVHFSEEYVQTVRS | 0.903 |
